Experiments:
Assay in all cases: PIF affinity resin pull-down, CD14+ cell lysate, LC-MS/MS count
[1] = target: Nuclear autoantigenic sperm protein (human) (UniProt P49321)
[2] = target: Protein S100-A8 (human) (UniProt P05109)
[3] = target: Protein disulfide-isomerase (human) (UniProt P07237)
[4] = target: Actinin alpha 1 isoform 3 (human) (UniProt P12814)
[5] = target: Tropomyosin alpha-3 chain (human) (UniProt P06753)
[6] = target: Isoform 1 of Vinculin (human) (UniProt P18206)
[7] = target: Heat shock protein HSP 90-beta (human) (UniProt P08238)
Heat shock protein HSP 90-beta (human), sequence (P08238 2-724 limits assumed): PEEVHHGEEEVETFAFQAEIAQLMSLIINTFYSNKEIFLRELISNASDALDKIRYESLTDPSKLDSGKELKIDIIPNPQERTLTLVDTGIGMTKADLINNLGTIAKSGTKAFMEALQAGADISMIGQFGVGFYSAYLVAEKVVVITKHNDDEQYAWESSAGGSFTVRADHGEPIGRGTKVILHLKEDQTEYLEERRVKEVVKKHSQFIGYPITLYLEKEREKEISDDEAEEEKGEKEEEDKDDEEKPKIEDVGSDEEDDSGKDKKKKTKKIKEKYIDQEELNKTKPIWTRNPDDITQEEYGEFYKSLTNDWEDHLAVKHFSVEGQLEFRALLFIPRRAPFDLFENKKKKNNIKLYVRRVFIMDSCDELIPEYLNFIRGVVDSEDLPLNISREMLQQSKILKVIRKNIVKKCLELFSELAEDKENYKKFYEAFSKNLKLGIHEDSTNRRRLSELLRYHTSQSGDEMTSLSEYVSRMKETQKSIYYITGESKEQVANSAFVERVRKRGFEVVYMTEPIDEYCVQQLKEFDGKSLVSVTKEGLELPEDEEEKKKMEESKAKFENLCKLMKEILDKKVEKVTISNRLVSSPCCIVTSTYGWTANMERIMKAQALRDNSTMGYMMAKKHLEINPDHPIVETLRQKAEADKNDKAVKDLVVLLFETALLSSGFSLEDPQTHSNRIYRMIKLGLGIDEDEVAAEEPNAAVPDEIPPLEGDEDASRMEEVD

[8] = target: Lymphocyte-specific protein 1 (human) (UniProt P33241)
Lymphocyte-specific protein 1 (human), sequence (P33241 whole entry, canonical isoform): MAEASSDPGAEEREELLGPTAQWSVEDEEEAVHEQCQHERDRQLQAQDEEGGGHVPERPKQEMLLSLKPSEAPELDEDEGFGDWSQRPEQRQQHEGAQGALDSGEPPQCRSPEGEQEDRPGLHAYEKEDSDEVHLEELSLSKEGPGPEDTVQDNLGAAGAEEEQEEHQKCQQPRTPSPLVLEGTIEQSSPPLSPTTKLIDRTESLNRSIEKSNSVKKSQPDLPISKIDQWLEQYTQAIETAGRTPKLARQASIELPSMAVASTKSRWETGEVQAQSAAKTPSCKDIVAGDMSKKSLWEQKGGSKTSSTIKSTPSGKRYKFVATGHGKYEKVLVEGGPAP

[9] = target: Isoform Short of 14-3-3 protein beta/alpha (human) (UniProt P31946)
[10] = target: Calreticulin (human) (UniProt P27797)
Calreticulin (human), sequence (P27797 18-417 limits assumed): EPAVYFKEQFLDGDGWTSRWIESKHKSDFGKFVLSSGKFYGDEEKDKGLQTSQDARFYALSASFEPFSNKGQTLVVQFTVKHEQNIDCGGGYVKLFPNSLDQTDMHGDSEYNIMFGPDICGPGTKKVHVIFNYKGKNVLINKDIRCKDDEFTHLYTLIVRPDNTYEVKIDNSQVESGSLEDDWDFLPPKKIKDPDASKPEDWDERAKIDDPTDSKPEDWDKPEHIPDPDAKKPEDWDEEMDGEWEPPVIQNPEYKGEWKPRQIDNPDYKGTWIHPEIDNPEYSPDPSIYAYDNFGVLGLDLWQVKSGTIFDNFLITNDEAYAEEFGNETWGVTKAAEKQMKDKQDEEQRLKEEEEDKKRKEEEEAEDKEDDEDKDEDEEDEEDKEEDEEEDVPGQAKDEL

[11] = target: 14-3-3 protein eta (human) (UniProt Q04917)
[12] = target: Gelsolin (human) (UniProt P06396)
[13] = target: Centrosomal protein of 120 kDa (Fragment) (human) (UniProt Q8N960)
[14] = target: Actin, cytoplasmic 2 (human) (UniProt P63261)
[15] = target: Isoform 2 of Ras suppressor protein 1 (human) (UniProt Q15404)
Isoform 2 of Ras suppressor protein 1 (human), sequence (Q15404 54-277 limits assumed): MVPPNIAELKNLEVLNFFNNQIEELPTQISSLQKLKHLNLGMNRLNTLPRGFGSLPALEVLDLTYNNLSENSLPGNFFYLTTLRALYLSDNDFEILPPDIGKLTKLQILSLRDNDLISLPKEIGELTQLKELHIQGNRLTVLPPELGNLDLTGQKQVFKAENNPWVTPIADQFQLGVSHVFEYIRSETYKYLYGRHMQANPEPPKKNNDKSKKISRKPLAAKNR

[16] = target: Isoform 2 of Heat shock protein HSP 90-alpha (human) (UniProt P07900)
[17] = target: Tropomodulin-3 (human) (UniProt Q9NYL9)
[18] = target: Bridging integrator 2 (human) (UniProt Q9UBW5)
Bridging integrator 2 (human), sequence (Q9UBW5 whole entry): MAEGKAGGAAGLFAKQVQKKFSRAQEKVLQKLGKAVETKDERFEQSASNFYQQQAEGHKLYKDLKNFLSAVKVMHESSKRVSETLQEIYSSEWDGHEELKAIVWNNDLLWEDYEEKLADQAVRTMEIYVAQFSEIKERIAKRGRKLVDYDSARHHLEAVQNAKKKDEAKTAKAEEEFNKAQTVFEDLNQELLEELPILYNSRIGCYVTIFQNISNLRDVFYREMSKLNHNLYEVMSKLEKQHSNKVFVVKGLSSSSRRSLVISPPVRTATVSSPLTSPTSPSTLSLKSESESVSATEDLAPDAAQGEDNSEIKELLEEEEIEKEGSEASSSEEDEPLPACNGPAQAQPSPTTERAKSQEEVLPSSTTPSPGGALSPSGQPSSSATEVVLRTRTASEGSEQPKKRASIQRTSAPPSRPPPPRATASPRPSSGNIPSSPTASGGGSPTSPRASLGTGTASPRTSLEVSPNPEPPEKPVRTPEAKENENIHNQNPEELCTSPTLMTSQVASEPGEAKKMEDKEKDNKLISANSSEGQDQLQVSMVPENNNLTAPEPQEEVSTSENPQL

[19] = target: 14-3-3 protein theta (human) (UniProt P27348)
14-3-3 protein theta (human), sequence (P27348 whole entry): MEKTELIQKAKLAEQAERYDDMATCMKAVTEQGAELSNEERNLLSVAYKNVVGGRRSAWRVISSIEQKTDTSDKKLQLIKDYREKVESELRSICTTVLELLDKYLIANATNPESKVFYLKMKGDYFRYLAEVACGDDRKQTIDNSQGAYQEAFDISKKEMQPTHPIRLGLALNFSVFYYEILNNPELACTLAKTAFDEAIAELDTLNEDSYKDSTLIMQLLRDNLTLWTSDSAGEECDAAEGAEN

[20] = target: Tubulin alpha-4A chain (human) (UniProt P68366)
Tubulin alpha-4A chain (human), sequence (P68366 whole entry): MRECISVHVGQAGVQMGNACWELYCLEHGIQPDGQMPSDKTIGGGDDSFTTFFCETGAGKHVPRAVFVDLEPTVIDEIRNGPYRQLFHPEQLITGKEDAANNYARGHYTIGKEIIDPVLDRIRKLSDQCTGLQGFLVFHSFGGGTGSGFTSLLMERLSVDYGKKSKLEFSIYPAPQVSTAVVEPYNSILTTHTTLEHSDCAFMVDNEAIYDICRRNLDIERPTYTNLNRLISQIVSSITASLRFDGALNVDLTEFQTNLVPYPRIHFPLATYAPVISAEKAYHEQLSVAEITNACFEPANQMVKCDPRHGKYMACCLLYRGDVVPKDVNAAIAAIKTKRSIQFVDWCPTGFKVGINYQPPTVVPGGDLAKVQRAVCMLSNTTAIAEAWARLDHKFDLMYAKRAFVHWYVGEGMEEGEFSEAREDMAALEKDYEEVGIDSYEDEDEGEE

[21] = target: Coronin-1A (human) (UniProt P31146)
[22] = target: Protein disulfide-isomerase A4 (human) (UniProt P13667)
Protein disulfide-isomerase A4 (human), sequence (P13667 21-645 limits assumed): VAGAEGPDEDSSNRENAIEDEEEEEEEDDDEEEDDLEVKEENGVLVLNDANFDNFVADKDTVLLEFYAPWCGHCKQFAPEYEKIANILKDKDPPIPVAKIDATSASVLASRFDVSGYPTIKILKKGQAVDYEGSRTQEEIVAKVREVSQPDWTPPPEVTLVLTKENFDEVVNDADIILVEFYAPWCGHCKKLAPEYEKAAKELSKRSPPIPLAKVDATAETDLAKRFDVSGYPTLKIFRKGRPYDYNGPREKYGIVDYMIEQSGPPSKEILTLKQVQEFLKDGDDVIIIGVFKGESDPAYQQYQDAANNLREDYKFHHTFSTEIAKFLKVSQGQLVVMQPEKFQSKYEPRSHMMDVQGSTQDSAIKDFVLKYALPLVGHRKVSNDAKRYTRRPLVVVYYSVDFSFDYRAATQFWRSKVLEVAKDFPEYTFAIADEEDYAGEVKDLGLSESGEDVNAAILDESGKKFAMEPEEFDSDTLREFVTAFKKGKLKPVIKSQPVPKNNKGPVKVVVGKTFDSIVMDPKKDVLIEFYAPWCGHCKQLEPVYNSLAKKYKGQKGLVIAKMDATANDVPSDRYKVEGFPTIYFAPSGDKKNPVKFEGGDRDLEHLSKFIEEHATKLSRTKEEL

[23] = target: Myeloid cell nuclear differentiation antigen (human) (UniProt P41218)
Myeloid cell nuclear differentiation antigen (human), sequence (P41218 whole entry): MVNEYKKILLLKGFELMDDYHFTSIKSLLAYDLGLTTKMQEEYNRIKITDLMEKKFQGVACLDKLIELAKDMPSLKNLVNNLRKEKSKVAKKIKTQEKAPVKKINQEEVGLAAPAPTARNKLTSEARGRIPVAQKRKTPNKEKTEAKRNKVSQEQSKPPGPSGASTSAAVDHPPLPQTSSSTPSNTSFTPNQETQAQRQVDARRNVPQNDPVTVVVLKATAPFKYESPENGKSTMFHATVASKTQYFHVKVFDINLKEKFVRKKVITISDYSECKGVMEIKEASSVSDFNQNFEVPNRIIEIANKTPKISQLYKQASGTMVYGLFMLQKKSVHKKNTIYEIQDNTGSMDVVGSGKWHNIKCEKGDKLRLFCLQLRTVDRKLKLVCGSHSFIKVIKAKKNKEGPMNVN

[24] = target: Talin-1 (human) (UniProt Q9Y490)

Tropomyosin alpha-3 chain (human), sequence (P06753 2-285 limits assumed): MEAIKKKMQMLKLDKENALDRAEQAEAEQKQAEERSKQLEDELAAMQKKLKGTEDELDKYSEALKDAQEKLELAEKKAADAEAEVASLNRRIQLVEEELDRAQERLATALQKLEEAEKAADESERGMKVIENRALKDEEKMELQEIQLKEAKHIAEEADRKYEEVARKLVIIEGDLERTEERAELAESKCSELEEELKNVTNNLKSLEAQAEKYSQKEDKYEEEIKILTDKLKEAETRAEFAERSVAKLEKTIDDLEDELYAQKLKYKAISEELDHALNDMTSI
Protein disulfide-isomerase (human), sequence (P07237 18-508 limits assumed): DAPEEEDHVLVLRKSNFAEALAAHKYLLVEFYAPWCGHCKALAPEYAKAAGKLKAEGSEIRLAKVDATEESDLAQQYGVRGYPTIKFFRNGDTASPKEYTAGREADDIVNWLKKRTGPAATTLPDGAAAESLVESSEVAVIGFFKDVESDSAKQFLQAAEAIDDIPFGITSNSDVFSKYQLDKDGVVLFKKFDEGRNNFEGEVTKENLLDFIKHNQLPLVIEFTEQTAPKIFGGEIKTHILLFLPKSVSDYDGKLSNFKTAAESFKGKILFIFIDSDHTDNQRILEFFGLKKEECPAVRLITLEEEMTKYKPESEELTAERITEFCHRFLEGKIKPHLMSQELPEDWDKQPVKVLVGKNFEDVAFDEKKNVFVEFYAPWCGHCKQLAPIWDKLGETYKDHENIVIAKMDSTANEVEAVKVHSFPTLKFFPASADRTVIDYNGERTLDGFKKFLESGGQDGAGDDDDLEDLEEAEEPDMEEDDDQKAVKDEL
Protein S100-A8 (human), sequence (P05109 whole entry): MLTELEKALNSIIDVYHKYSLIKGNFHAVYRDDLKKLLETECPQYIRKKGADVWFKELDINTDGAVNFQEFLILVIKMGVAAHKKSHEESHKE

## PIF15 affinity resin (Cys-C6 spacer-PIF15 conjugated to agarose) (peptide)
[1]
  Ave: 1
  Inject 1: 2
  Inject 2: 0
  Inject 3: 1
[2]
  Ave: 2
  Inject 1: 2
  Inject 2: 1
  Inject 3: 2
[3]
  Ave: 2
  Inject 1: 3
  Inject 2: 2
  Inject 3: 2
[4]
  Ave: 4
  Inject 1: 5
  Inject 2: 4
  Inject 3: 3
[5]
  Ave: 4
  Inject 1: 4
  Inject 2: 2
  Inject 3: 5
[6]
  Ave: 3
  Inject 1: 3
  Inject 2: 2
  Inject 3: 3
[7]
  Ave: 1
  Inject 1: 2
  Inject 2: 1
  Inject 3: 1
[8]
  Ave: 2
  Inject 1: 4
  Inject 2: 2
  Inject 3: 1
[9]
  Ave: 3
  Inject 1: 3
  Inject 2: 3
  Inject 3: 4
[10]
  Ave: 6
  Inject 1: 7
  Inject 2: 4
  Inject 3: 6
[11]
  Ave: 1
  Inject 1: 1
  Inject 2: 1
  Inject 3: 2
[12]
  Ave: 2
  Inject 1: 3
  Inject 2: 1
  Inject 3: 1
[13]
  Ave: 1
  Inject 1: 2
  Inject 2: 0
  Inject 3: 0
[14]
  Ave: 7
  Inject 1: 6
  Inject 2: 7
  Inject 3: 7
[15]
  Ave: 1
  Inject 1: 0
  Inject 2: 1
  Inject 3: 2
[16]
  Ave: 1
  Inject 1: 1
  Inject 2: 2
  Inject 3: 1
[17]
  Ave: 1
  Inject 1: 1
  Inject 2: 2
  Inject 3: 1
[18]
  Ave: 1
  Inject 1: 1
  Inject 2: 2
  Inject 3: 0
[19]
  Ave: 1
  Inject 1: 1
  Inject 2: 1
  Inject 3: 2
[20]
  Ave: 2
  Inject 1: 2
  Inject 2: 3
  Inject 3: 1
[21]
  Ave: 2
  Inject 1: 2
  Inject 2: 2
  Inject 3: 1
[22]
  Ave: 2
  Inject 1: 4
  Inject 2: 1
  Inject 3: 2
[23]
  Ave: 2
  Inject 1: 2
  Inject 2: 2
  Inject 3: 2
[24]
  Ave: 6
  Inject 1: 5
  Inject 2: 6
  Inject 3: 8

From patent US20180318386A1, “PEPTIDES AND METHODS OF TREATING ENDOMETRIOSIS USING THE SAME” (BIOINCEPT, LLC, priority 2014, published 2018)
